Data: US20190055279A1, “NOVEL POLYPEPTIDES WITH IMPROVED PROTEOLYTIC STABILITY, AND METHODS OF PREPARING AND USING SAME” (TUFTS UNIVERSITY, priority 2015, published 2019)
Blank lines part the entries; values can stand above or below the substance they belong to.

Tests used:
GLP-1 receptor [1] = target: GLP-1 receptor
GLP-1 receptor [2] = target: GLP-1 receptor; remark: listed apart in the source
GLP-1 receptor [3] = target: GLP-1 receptor; remark: listed apart in the source

Chain of N-acetyl-GLP-1 (peptide) (peptide): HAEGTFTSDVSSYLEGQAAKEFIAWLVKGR

Substance: Exenatide (peptide)
EC50 (pM), agonist potency, CRE-luciferase reporter (GLP-1 receptor [1]): 1.1 pM

agonist potency, CRE-luciferase reporter (GLP-1 receptor [2]): 50 fold
Substance: N-acetyl-GLP-1 (peptide)

degradation by DPP4, read as potency loss on human GLP-2R (GLP-2): > 97% | degradation by DPP4, read as potency loss in the GLP-1R agonist assay (Liraglutide): > 98% | degradation by DPP4, read as potency loss in the GLP-1R agonist assay (GLP-1 (7-36) amide): > 99.8%
Substance: dipeptidyl protease 4 (enzyme)

agonist potency and efficacy (GLP-1 receptor [3]): 123 fold
Substance: para-trifluoromethyldiazirine benzyl derivative of GLP-1 (peptide)
